Results published in publication PMC12002136.

Molecular target: exportin 1 (XPO1, CRM1) (UniProt O14980)
Experiment: anti-HA
Conditions: reference: wild type; sites S182

Question: YTHDF1 (from UniProt Q9BYJ9) S182A was tested. Which “binding against the reference” value did it give?
Answer: Its value is “stronger”.
